In patent US20140086935A1 (Bayer, published 2014):
Residue numbers refer to the chain shown, from its start.

B1: MS-BW-39 (Fab, V domains shown)
VH: QVQLVQSGAEVKKPGSSVKVSCKASGGTFSSYAISWVRQAPGQGLEWMGGIIPIFGTANYAQKFQGRVTITADESTSTAYMELSSLRSEDTAVYYCARGYIPYHLFDYWGQGTLVTVSS
VL: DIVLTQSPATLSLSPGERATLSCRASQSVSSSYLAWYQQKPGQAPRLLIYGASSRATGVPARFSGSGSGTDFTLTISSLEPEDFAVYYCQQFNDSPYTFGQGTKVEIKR
notes: Fab, FLAG + Strep-tag II; not tied by name
B2: MS-BW-17 (Fab, V domains shown)
VH: QVQLVQSGAEVKKPGESLKISCKGSGYSFTSYWIGWVRQMPGKGLEWMGIIYPGDSDTRYSPSFQGQVTISADKSISTAYLQWSSLKASDTAMYYCARLTNYFDSIYYDHWGQGTLVTVSS
VL: DIALTQPASVSGSPGQSITISCTGTSSDVGGYNYVSWYQQHPGKAPKLMIYDVSNRPSGVSNRFSGSKSGNTASLTISGLQAEDEADYYCQSYDPSHPSKVFGGGTKLTVLG
notes: as for B1
B3: MS-BW-54 (Fab, V domains shown)
VH: QVQLVQSGAEVKKPGESLKISCKGSGYSFTSYWIGWVRQMPGKGLEWMGIIYPGDSDTRYSPSFQGQVTISADKSISTAYLQWSSLKASDTAMYYCARYYGFEYDLLFDNWGQGTLVTVSS
VL: DIALTQPASVSGSPGQSITISCTGTSSDVGGYNYVSWYQQHPGKAPKLMIYDVSNRPSGVSNRFSGSKSGNTASLTISGLQAEDEADYYCQSYDISGYPVFGGGTKLTVLG
notes: as for B1
B4: MS-BW-38 (Fab, V domains shown)
VH: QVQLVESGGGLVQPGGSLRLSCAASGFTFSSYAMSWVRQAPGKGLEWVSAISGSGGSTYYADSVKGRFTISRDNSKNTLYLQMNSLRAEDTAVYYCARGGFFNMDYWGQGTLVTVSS
VL: B3 VL with I95F, S96T, G97Y, Y98G, P99S
notes: as for B1
B5: MS-BW-21 (Fab, V domains shown)
VH: QVQLVQSGAEVKKPGSSVKVSCKASGGTFSSYAISWVRQAPGQGLEWMGGIIPIFGTANYAQKFQGRVTITADESTSTAYMELSSLRSEDTAVYYCARYIGYTNVMDIRPGFYLDYWGQGTLVTVSS
VL: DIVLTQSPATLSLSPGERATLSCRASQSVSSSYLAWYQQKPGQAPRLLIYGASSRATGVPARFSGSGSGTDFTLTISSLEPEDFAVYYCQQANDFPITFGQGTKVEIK
B6: MS-BW-44-2 (Fab, V domains shown)
VH: QVQLVESGGGLVQPGGSLRLSCAASGFTFSSYAMSWVRQAPGKGLEWVSGISGNGVLIFYADSVKGRFTISRDNSKNTLYLQMNSLRAEDTAVYYCARFLDIWGQGTLVTVSS
VL: B3 VL with I95F, S96V, G97R, Y98F, P99M
notes: Fab; MS-BW-44 with a modified HCDR2 cassette
B7: MS-BW-44-6 (Fab, V domains shown)
VH: B6 VH with S30N, G50V, V56S, L57N, I58T, F59Y
VL: B3 VL with I95F, S96V, G97R, Y98F, P99M
notes: Fab; MS-BW-44 with modified HCDR1 and HCDR2 cassettes
B8: MS-BW-25 (Fab, V domains shown)
VH: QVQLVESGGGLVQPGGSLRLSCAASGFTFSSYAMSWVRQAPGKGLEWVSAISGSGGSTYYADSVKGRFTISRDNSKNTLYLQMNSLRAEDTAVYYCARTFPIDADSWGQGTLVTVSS
VL: B3 VL with I95F, S96I, G97N, Y98V, P99I
notes: as for B1
B9: MS-BW-1 (Fab, V domains shown)
VH: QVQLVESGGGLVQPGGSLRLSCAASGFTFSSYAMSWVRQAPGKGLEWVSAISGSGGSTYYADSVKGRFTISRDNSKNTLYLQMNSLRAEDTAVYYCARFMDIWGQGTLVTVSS
VL: B3 VL with I95Y, S96Q, G97Q, Y98F, P99T
notes: as for B1
B10: MS-BW-28 (Fab, V domains shown)
VH: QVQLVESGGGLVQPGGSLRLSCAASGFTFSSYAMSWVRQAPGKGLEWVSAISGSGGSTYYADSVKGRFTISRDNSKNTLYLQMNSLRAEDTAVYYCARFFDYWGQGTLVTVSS
VL: B3 VL with I95F, S96R, G97R, Y98F, P99S
notes: as for B1
B11: MS-BW-2 (Fab, V domains shown)
VH: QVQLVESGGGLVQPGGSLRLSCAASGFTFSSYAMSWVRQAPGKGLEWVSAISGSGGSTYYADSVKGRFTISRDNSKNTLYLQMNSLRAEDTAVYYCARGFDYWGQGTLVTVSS
VL: B3 VL with I95F, S96K, G97T, P99L
notes: as for B1
B12: MS-BW-27 (Fab, V domains shown)
VH: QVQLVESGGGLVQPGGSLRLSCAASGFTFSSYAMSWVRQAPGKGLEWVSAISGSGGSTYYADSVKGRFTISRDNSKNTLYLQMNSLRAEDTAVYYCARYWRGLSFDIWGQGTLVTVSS
VL: B3 VL with I95F, S96Y, G97K, Y98F, P99N
notes: as for B1
B13: MS-BW-26 (Fab, V domains shown)
VH: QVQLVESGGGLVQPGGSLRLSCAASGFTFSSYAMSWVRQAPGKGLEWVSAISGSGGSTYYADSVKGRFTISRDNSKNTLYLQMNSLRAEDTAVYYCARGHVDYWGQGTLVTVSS
VL: B3 VL with I95F, S96V, G97R, Y98F, P99M
notes: as for B1
B14: MS-BW-43 (Fab, V domains shown)
VH: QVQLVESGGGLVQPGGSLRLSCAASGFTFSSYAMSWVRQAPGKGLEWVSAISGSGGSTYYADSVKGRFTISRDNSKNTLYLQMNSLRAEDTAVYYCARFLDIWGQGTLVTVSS
VL: B3 VL with I95F, S96I, G97N, Y98V, P99I
notes: Fab: heavy chain of MS-BW-3 with light chain of MS-BW-25; not tied by name
B15: MS-BW-46 (Fab, V domains shown)
VH: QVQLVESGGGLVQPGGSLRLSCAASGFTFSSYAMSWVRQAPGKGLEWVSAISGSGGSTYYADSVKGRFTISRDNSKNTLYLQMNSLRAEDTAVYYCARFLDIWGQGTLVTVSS
VL: B3 VL with I95F, S96R, G97R, Y98F, P99S
notes: Fab: heavy chain of MS-BW-3 with light chain of MS-BW-28; not tied by name
B16: MS-BW-47 (Fab, V domains shown)
VH: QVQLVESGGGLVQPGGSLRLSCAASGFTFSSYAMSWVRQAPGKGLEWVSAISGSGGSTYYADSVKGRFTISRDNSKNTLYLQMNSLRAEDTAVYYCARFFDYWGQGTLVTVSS
VL: B3 VL with I95Y, S96Q, G97Q, Y98F, P99T
notes: Fab: heavy chain of MS-BW-28 with light chain of MS-BW-1; not tied by name
B17: MS-BW-52 (Fab, V domains shown)
VH: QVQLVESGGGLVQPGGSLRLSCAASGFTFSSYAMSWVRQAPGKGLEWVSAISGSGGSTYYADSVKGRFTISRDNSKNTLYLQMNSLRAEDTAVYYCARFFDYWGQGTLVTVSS
VL: B3 VL with I95F, S96V, G97R, Y98F, P99M
notes: Fab: heavy chain of MS-BW-28 with light chain of MS-BW-26; not tied by name
B18: MS-BW-45 (Fab, V domains shown)
VH: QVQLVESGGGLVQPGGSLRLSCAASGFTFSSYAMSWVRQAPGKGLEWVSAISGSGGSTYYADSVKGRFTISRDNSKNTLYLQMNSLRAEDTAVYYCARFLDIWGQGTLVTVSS
VL: B3 VL with I95F, S96Y, G97K, Y98F, P99N
notes: Fab: heavy chain of MS-BW-3 with light chain of MS-BW-27; not tied by name
B19: MS-BW-49 (Fab, V domains shown)
VH: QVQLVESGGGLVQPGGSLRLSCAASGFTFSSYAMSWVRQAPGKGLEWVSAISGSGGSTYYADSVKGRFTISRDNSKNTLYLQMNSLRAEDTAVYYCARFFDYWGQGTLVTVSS
VL: B3 VL with I95F, S96K, G97T, P99L
notes: Fab: heavy chain of MS-BW-28 with light chain of MS-BW-2; not tied by name
B20: MS-BW-51 (Fab, V domains shown)
VH: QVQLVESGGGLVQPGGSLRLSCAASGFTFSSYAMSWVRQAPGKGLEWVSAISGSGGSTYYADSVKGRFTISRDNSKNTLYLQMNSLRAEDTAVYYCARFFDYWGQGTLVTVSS
VL: B3 VL with I95F, S96I, G97N, Y98V, P99I
notes: Fab: heavy chain of MS-BW-28 with light chain of MS-BW-25; not tied by name
B21: MS-BW-44-2-15 (Fab, V domains shown)
VH: B6 VH with F99W, L100F, I102H
VL: B3 VL with I95F, S96V, G97R, Y98F, P99M
notes: Fab
B22: MS-BW-44-2-16 (Fab, V domains shown)
VH: B6 VH with F99W, L100F, I102V
VL: B3 VL with I95F, S96V, G97R, Y98F, P99M
notes: Fab
B23: MS-BW-17-2 (Fab, V domains shown)
VH: B2 VH
VL: B2 VL with S92A, Y93F, D94A, P95V, S96M, H97P, P98N, S99V, K100E
notes: Fab from LCDR3 optimization of MS-BW-17
B24: MS-BW-17-3 (Fab, V domains shown)
VH: B2 VH
VL: B2 VL with Y93F, D94T, P95V, H97P, P98G, S99A, K100D
notes: as for B23
B25: MS-BW-54-1 (Fab, V domains shown)
VH: B3 VH
VL: B3 VL with V29L, D52A, V53G, S54N, S92A, I95S
notes: Fab from LCDR1, -2, -3 optimization of MS-BW-54

Each binder was assayed against T1, rat TIMP-1 (rat, UniProt P30120 24-217) (assay: cell-based or functional assay).
T1 sequence (P30120 24-217 limits assumed): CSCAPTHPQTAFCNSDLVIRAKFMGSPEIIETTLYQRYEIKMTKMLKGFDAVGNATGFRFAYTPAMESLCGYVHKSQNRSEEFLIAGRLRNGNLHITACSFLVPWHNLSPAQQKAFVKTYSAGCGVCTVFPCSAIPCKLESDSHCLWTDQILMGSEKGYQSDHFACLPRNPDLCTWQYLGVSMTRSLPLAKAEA

IC50 in rat protease assay	Binder
> 100 nM	B1
11 nM	B2
7 nM	B3
> 300 nM	B4
67 nM	B5

The binders below were run against T2, human TIMP-1 (human, UniProt P01033 24-207) (assay: cell-based or functional assay).

IC50 in human protease assay (modified, 0.4 nM TIMP-1 and MMP-1)	Binder
0.4 nM	B6
0.2 nM	B7

Target: T2, human TIMP-1
Experiment: cell-based or functional assay
Remark: another data set of the same source

IC50 in human protease assay	Binder
115 nM	B8
> 100 nM	B9
22 nM	B10
> 100 nM	B11

These binders were tested against T2, human TIMP-1 (assay: SPR (BIAcore), TIMP-1 coupled to chip, monovalent Fab).
Method: (§1) For affinity determination, monomeric fractions of affinity and SEC purified Fab fragments or purified IgG1 molecules were used. All experiments were conducted in HBS buffer at a flow rate of 20 μl/min at 25° C. on a BIAcore™ instrument. Antigens in 100 mM sodium acetate pH 5.0 were coupled to a CM 5 sensor chip using standard EDC-NHS coupling chemistry. […] All sensograms were fitted globally using BIA evaluation software. For monovalent Fab fragments a monovalent fit (Langmuir binding) and for IgGs a bivalent fit was applied.

Kd	Binder
25 nM	B8
~74 nM	B12
~100 nM	B13
65 nM	B9
10 nM	B10
180 nM	B11

Target: T2, human TIMP-1
Experiment: cell-based or functional assay
Remark: another data set of the same source

IC50 in human protease assay	Binder
> 100 nM	B14
4 nM	B15
> 100 nM	B16
9 nM	B17
9 nM	B18
> 100 nM	B19
7 nM	B20

Target: T2, human TIMP-1
Experiment: SPR (BIAcore), TIMP-1 coupled to chip, monovalent Fab
Remark: another data set of the same source
Method: as §1

Kd	Binder
0.3 nM	B21
0.5 nM	B6
0.5 nM	B22
0.6 nM	B7

Target: T1, rat TIMP-1
Experiment: cell-based or functional assay
Remark: another data set of the same source

IC50 in rat protease assay	Binder
11 nM	B2
1.1 nM	B23
3 nM	B24
7 nM	B3
3 nM	B25

The binders below were run against T1, rat TIMP-1 (assay: SPR (BIAcore), TIMP-1 coupled to chip, monovalent Fab).
Method: as §1

Kd	Binder
~108 nM	B1
13 nM	B2
9 nM	B3
~353 nM	B4
36 nM	B5

Target: T2, human TIMP-1
Experiment: as above
Remark: another data set of the same source
Method: as §1

Kd	Binder
0.5 nM	B6
0.6 nM	B7

Target: T2, human TIMP-1
Experiment: as above
Remark: another data set of the same source
Method: as §1

Kd	Binder
25 nM	B8
~74 nM	B12
~65 nM	B14
6 nM	B15
~152 nM	B16
~11 nM	B17
8 nM	B18
~21 nM	B19
~7 nM	B20
~3 nM	B4
520 nM	B5

Target: T1, rat TIMP-1
Experiment: as above
Remark: another data set of the same source
Method: as §1

Kd	Binder
~108 nM	B1
13 nM	B2
1.3 nM	B23
1.9 nM	B24
4520 nM	B8
9 nM	B3
2 nM	B25
~353 nM	B4
36 nM	B5

Target: T2, human TIMP-1
Experiment: cell-based or functional assay
Remark: another data set of the same source

IC50 in human protease assay (modified, decreased TIMP-1 and MMP-1)	Binder
0.2 nM	B21
0.4 nM	B6
0.3 nM	B22
0.2 nM	B7

Target: T2, human TIMP-1
Experiment: cell-based or functional assay
Remark: another data set of the same source

IC50 in human protease assay	Binder
115 nM	B8
~11 nM	B4
> 300 nM	B5

Target: T1, rat TIMP-1
Experiment: cell-based or functional assay
Remark: another data set of the same source

IC50 in rat protease assay	Binder
> 100 nM	B1
> 300 nM	B8
> 300 nM	B4
67 nM	B5
